{"source": "patent US9289506B2", "about": "“Surface binding of nanoparticle based drug delivery to tissue” (Massachusetts Institute of Technology, priority 2013, dated 2016)", "assay": "Competitive binding of FITC-Avidin and unlabeled Avidin in cartilage (binding isotherm fit)", "parameters": "species or system bovine", "settings": "best fit of binding isotherm to FIG. 13 data", "procedure": "To test this hypothesis, competitive binding experiments were performed in which 3 mm diameter cartilage disks were equilibrated for 3 days in 300 μl buffer containing a fixed amount of (fluorescently labeled) FITC-Avidin (1 μM) and graded amounts of unlabeled Avidin (0, 10, 76, 100, and 203 μM). The disks were split into half disks to reduce the time needed for equilibration, which was performed in 96 well plates at 37° C. The uptake ratio, RU, was measured and plotted versus the total bath concentration of Avidin (labeled+unlabeled, FIG. 13), where RU is defined as the total concentration of Avidin inside the cartilage (bound (CB) plus free (CF)) per intra-tissue water weight, normalized to the Avidin concentration in the equilibration bath (CBath):\nLabeled and unlabeled Avidin were held to partition into the cartilage identically. At very low concentration of the labeled Avidin (≦1 μM), a high uptake of ˜120 was observed. When unlabeled Avidin was added to the bath, both species (labeled and unlabeled) could compete for the same (constant) number of binding sites available in the tissue (site density NT). […] To model the data of FIG. 13, a first-order, bimolecular, reversible reaction was produced to describe binding of Avidin to a single dominant binding species within cartilage. A theoretical model was adopted, (Garcia et al., Arch Biochem Biophys, 2003) previously used for characterizing the binding of soluble insulin like growth factor-1 (IGF-1) to IGF-binding proteins (IGF-BPs) that are uniformly enmeshed and fixed within cartilage matrix. According to this model, the equilibrium molar concentration of free solute (CF), bound solute (CB), intra-tissue binding site density (NT) and the equilibrium dissociation constant (KEQ) are related by the binding isotherm:\n[formula] which is similar in form to a Langmuir adsorption isotherm. […]\n[formula] […] Thus, K is determined by both steric hindrance and electrostatic (Donnan) interactions. […]", "note": "Values joined by “and” are separate entries in the source; they are usually repeats but may differ in a detail not shown here. Identical values can stand only once."}
{"substance": "Avidin: positively charged globular glycosylated tetrameric protein, pI 10.5, 66 kDa, diameter ~7 nm (Invitrogen); SEQ ID NO 1", "values": [{"measurement": "equilibrium partition coefficient K", "value": "~6"}, {"measurement": "Kd", "setting": "read-out: equilibrium dissociation constant KEQ", "value": "150 µM and ~150 µM"}]}
